Residue numbers refer to the chain shown, from its start.
T1: CD123 (Homo sapiens (Human), UniProt P26951 19-305, limits assumed)
T1 construct: also called CD123-Signal
T1 sequence: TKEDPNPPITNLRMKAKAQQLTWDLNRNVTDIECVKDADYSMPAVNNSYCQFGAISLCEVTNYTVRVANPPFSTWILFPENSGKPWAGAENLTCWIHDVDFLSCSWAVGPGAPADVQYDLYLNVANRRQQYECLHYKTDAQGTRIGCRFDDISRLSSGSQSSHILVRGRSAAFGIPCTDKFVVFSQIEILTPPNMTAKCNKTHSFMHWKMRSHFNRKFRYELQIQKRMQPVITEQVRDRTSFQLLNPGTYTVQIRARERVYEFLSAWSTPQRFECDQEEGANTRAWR

T2: P26 (human, UniProt P02771 381-609, limits assumed)
T2 construct: also called AFP p26
T2 sequence: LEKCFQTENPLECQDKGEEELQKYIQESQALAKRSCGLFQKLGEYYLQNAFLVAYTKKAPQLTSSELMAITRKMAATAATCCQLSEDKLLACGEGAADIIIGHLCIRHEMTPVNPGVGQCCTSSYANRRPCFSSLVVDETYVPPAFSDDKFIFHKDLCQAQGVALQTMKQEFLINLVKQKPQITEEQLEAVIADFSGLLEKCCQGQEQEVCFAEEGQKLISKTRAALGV

B1: D domain SEQ ID NO: 668 (designed binder)
chain: MGSWYEFYWRLEAIEERLWALGGSEAELAEFEKAIATFEDQLQTYKGKGNPEVEALETEALAIHAELEAYRHN
B2: D domain SEQ ID NO: 667 (designed binder)
chain: MGSWHEFIWRLDAIEERLWALGGSEAELAWFETEIATFEAQLQDYKGKGNPEVEALEWEAIAIAWELDAYRHN
B3: D domain SEQ ID NO: 683 (designed binder)
chain: MGSWWEFTDRLEAIEDRLWALGGSEAELAHFEDSIAQFEQELQWYKGKGNPEVEALADEADAIESELHAYRHN
B4: D domain SEQ ID NO: 675 (designed binder)
chain: MGSWYEFEDRLAAIEARLWALGGSEAELADFEEEIAYFEHGLQWYKGKGNPEVEALESEAMAIIDELHAYRHN
B5: D domain SEQ ID NO: 682 (designed binder)
chain: MGSWWEFTDRLDAIFDRLWALGGSEAELAAFEESIAIFEQDLQYYKGKGNPEVEALEYEANAIQYELEAYRHN
B6: D domain SEQ ID NO: 665 (designed binder)
chain: MGSWDEFDARLWAIEERLWALGGSEAELAEFEFMIAAFEDVLQEYKGKGNPEVEALMGEANAIVMELDAYRHN
B7: D domain SEQ ID NO: 664 (designed binder)
chain: MGSWVEFWDRLDAIEERLWALGGSEAELAEFEFMIAMFEQHLQEYKGKGNPEVEALIPEAGAIDKELTAYRHN
B8: D domain SEQ ID NO: 662 (designed binder)
chain: MGSWFEFPYRLEAIEERLYALGGSEAELAQFEQFIAWFEMDLQDYKGKGNPEVEALWFEANAIVEELDAYRHN
B9: D domain SEQ ID NO: 663 (designed binder)
chain: MGSWVEFYDRLEAIEIRLWALGGSEAELADFESFIAHFEDDLQAYKGKGNPEVEALMDEANAIVFELDAYRHN
B10: D domain SEQ ID NO: 684 (designed binder)
chain: MGSWVEFFWRLDAIEDRLWALGGSEAELANFEFEIADFEAWLQKYKGKGNPEVEALHSEADAIQLELRAYRHN
B11: D domain SEQ ID NO: 669 (designed binder)
chain: MGSWFEFQWRLEAIEDRLWALGGSEAELAEFETIIAGFEEQLQVYKGKGNPEVEALEEEAMAIQTELHAYRHN
B12: D domain SEQ ID NO: 670 (designed binder)
chain: MGSWWEFEDRLWAIEQRLDALGGSEAELAVFENSIAKFEDMLQVYKGKGNPEVEALHEEADAIIWELYAYRHN
B13: D domain SEQ ID NO: 679 (designed binder)
chain: MGSWFEFEERLEAIIYRLWALGGSEAELAMFEESIAWFESDLQQYKGKGNPEVEALEYEAMAISKELKAYRHN
B14: D domain SEQ ID NO: 671 (designed binder)
chain: MGSWWEFEDRLWAIDRRLMALGGSEAELAVFEQMIAHFEQILQVYKGKGNPEVEALHFEAHAIGMELAAYRHN
B15: D domain SEQ ID NO: 680 (designed binder)
chain: MGSWAEFDDRLEAIEYRLHALGGSEAELAWFEEGIAGFEHALQSYKGKGNPEVEALETEAGAINEELWAYRHN
B16: D domain SEQ ID NO: 678 (designed binder)
chain: MGSWFEFEERLNAISWRLHALGGSEAELAYFEEDIAWFEDDLQFYKGKGNPEVEALENEAYAIWEELDAYRHN
B17: D domain SEQ ID NO: 672 (designed binder)
chain: MGSWWEFLDRLEAIEYRLQALGGSEAELAVFEWEIAMFEDHLQGYKGKGNPEVEALHSEAHAIISELSAYRHN
B18: D domain SEQ ID NO: 660 (designed binder)
chain: MGSWYEFEQRLGAIEERLWALGGSEAELAAFEDIIAYFEYQLQSYKGKGNPEVEALDEEAWAIDDELWAYRHN
B19: D domain SEQ ID NO: 681 (designed binder)
chain: MGSWDEFEERLQAIEYRLWALGGSEAELAWFEEVIAQFEYDLQKYKGKGNPEVEALSTEAQAIQDELWAYRHN
B20: D domain SEQ ID NO: 674 (designed binder)
chain: MGSWWEFYDRLTAIEARLWALGGSEAELADFEEGIADFEYDLQDYKGKGNPEVEALFWEAWAIQSELTAYRHN
B21: D domain SEQ ID NO: 677 (designed binder)
chain: MGSWEEFFFRLEAIDDRLYALGGSEAELALFEEVIAYFEQDLQWYKGKGNPEVEALYVEAYAIQEELYAYRHN
B22: D domain SEQ ID NO: 666 (designed binder)
chain: MGSWYEFWRRLDAIEERLWALGGSEAELAMFETDIAGFEWMLQLYKGKGNPEVEALEHEAWAINSELDAYRHN
B23: D domain SEQ ID NO: 661 (designed binder)
chain: MGSWWEFEQRLDAIETRLWALGGSEAELAYFEHIIADFEDELQIYKGKGNPEVEALGWEAFAIDGELTAYRHN
B24: D domain SEQ ID NO: 673 (designed binder)
chain: MGSWAEFEDRLAAIERRLEALGGSEAELADFESSIAWFEPDLQYYKGKGNPEVEALMYEAEAIFSELYAYRHN
B25: D domain SEQ ID NO: 676 (designed binder)
chain: MGSWWEFSWRLEAIETRLDALGGSEAELAFFEMDIAWFEQDLQLYKGKGNPEVEALEEEAYAIYEELEAYRHN
B26: D domain SEQ ID NO: 978 (designed binder)
chain: MGSWIHFKNDLAVIKDELEALGGSEAELARFEIMIAWFEDALQWYKGKGNPEVEALRKEAAAIRDELQAYRHN
B27: D domain SEQ ID NO: 962 (designed binder)
chain: MGSWQIFKQDLAAIKDYLEALGGSEAELAIFEFDIAWFEHMLQWYKGKGNPEVEALRKEAAAIRDELQAYRHN
B28: D domain SEQ ID NO: 973 (designed binder)
chain: B27 chain with Q5E, Q9D, A13S, D16K, Y17V, I30L, F33S, H40L, W44Y
B29: D domain SEQ ID NO: 979 (designed binder)
chain: B27 chain with Q5M, I6V, A13E, D16A, Y17N, I30D, D34A, H40Y, M41E
B30: D domain SEQ ID NO: 969 (designed binder)
chain: B27 chain with Q5V, I6L, A13M, D16Q, Y17R, I30M, F33Y, W44Y
B31: D domain SEQ ID NO: 971 (designed binder)
chain: MGSWSYFKEDLANIKSSLEALGGSEAELAWFESSIAWFEHTLQYYKGKGNPEVEALRKEAAAIRDELQAYRHN
B32: D domain SEQ ID NO: 974 (designed binder)
chain: B27 chain with Q5S, Q9D, A13V, D16E, Y17R, I30H, F33Q, M41L, W44Y
B33: D domain SEQ ID NO: 970 (designed binder)
chain: B31 chain with S5V, Y6E, E9R, S16Q, S17R, W30Q, S33M, S34Q
B34: D domain SEQ ID NO: 981 (designed binder)
chain: MGSWHSFKQDLAYIKYLLEALGGSEAELAQFEELIAFFEYYLQTYKGKGNPEVEALRKEAAAIRDELQAYRHN
B35: D domain SEQ ID NO: 980 (designed binder)
chain: MGSWKNFKLELALIKSKLEALGGSEAELAQFEADIAFFEWSLQWYKGKGNPEVEALRKEAAAIRDELQAYRHN
B36: D domain SEQ ID NO: 975 (designed binder)
chain: MGSWSVFKDDLAQIKDRLEALGGSEAELAQFELDIAWFEYVLQFYKGKGNPEVEALRKEAAAIRDELQAYRHN
B37: D domain SEQ ID NO: 976 (designed binder)
chain: B36 chain with S5A, D10S, Q13H, R17V, Q30L, L33M, F44D
B38: D domain SEQ ID NO: 967 (designed binder)
chain: MGSWYTFKGSLAEIKNRLEALGGSEAELAMFESDIAWFEFMLQFYKGKGNPEVEALRKEAAAIRDELQAYRHN
B39: D domain SEQ ID NO: 968 (designed binder)
chain: B38 chain with Y5F, G9D, S10D, E13Q, M30N, S33M, D34S, F44Y
B40: D domain SEQ ID NO: 984 (designed binder)
chain: MGSWNNFKSSLASIKQVLEALGGSEAELAVFELQIAHFERELQYYKGKGNPEVEALRKEAAAIRDELQAYRHN
B41: D domain SEQ ID NO: 977 (designed binder)
chain: MGSWIAFKDHLAIIKQRLEALGGSEAELARFEFEIAWFEWMLQYYKGKGNPEVEALRKEAAAIRDELQAYRHN
B42: D domain SEQ ID NO: 982 (designed binder)
chain: MGSWVVFKSSLAQIKILLEALGGSEAELAIFEVKIAHFEQELQEYKGKGNPEVEALRKEAAAIRDELQAYRHN
B43: D domain SEQ ID NO: 983 (designed binder)
chain: B42 chain with V5D, V6Q, S9N, Q13S, I16R, L17V, Q40H, E41F, E44Q

target: T1, CD123; assay: ELISA, format not described; set-up: unit not given here

Row | Binder | ELISA_avg
1 | B1 | 3.7
2 | B2 | 3.3
3 | B3 | 16.6
4 | B4 | 3.8
5 | B5 | 7.5
6 | B6 | 4.3
7 | B7 | 10
8 | B8 | 3.1
9 | B9 | 4
10 | B10 | 4
11 | B11 | 3.4
12 | B12 | 4.4
13 | B13 | 3.7
14 | B14 | 4.6
15 | B15 | 5.8
16 | B16 | 13
17 | B17 | 3.1
18 | B18 | 10.6
19 | B19 | 3.8
20 | B20 | 3.2
21 | B21 | 3.2
22 | B22 | 3.6
23 | B23 | 4.7
24 | B24 | 4.2
25 | B25 | 3.3

target: T2, P26; assay: ELISA, format not described; set-up: unit not given here

Row | Binder | ELISA_avg
26 | B26 | 17.9
27 | B27 | 17.4
28 | B28 | 27.9
29 | B29 | 17.8
30 | B30 | 29.7
31 | B31 | 11.6
32 | B32 | 25.6
33 | B33 | 30.4
34 | B34 | 25.6
35 | B35 | 20.6
36 | B36 | 30.3
37 | B37 | 24.1
38 | B38 | 32.3
39 | B39 | 30.8
40 | B40 | 24.1
41 | B41 | 29.9
42 | B42 | 8.6
43 | B43 | 15.6
